Experimental data reported in PMC3616737.

Tests used:
[1] = target: T1, XMRV reverse transcriptase (full-length, monomeric) (Xenotropic murine leukaemia …, UniProt A1Z651 658-1328); assay: X-ray crystallography
[2] = target: T1, XMRV reverse transcriptase …; assay: SAXS
[3] = target: T1, XMRV reverse transcriptase …; assay: SAXS; remark: listed apart in the source

B1: hybrid 1 (DNA:RNA)
RNA: AACAGAGUGCGACACCUGAUUCCAU
DNA: TGGAATCAGGTGTCGCACTCTG
binding result [1]: binds

B2: PPT-18 (DNA:RNA)
RNA: AGUCUCCAGAAAAAGGGGGGAAUGA
DNA: CATTCCCCCCTTTTTCTGGAGA
binding result [2]: binds

B3: PPT-19 (DNA:RNA)
RNA: UAGUCUCCAGAAAAAGGGGGGAAUG
DNA: ATTCCCCCCTTTTTCTGGAGAC
binding result [3]: binds
